Test results from the supplement of paper PMC10065799, “High-throughput profiling of sequence recognition by tyrosine kinases and SH2 domains using bacterial peptide display” (eLife, 2023).
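Further: 11-residue human phosphosite peptides and single-mutation variants displayed on the E. coli surface, counted by deep sequencing, each peptide's frequency after selection divided by its frequency in the unselected input library; frequency after pTyr selection over input frequency; kinase dosed for 20-30% of maximal phosphorylation in three min.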

These sequences were tested against Jak2 (UniProt O60674) (assay: phosphorylation enrichment, bacterial display (enrichment ratio); higher = better substrate or ligand; peptides without Tyr show the background).
Jak2, sequence (O60674 whole entry, looked up): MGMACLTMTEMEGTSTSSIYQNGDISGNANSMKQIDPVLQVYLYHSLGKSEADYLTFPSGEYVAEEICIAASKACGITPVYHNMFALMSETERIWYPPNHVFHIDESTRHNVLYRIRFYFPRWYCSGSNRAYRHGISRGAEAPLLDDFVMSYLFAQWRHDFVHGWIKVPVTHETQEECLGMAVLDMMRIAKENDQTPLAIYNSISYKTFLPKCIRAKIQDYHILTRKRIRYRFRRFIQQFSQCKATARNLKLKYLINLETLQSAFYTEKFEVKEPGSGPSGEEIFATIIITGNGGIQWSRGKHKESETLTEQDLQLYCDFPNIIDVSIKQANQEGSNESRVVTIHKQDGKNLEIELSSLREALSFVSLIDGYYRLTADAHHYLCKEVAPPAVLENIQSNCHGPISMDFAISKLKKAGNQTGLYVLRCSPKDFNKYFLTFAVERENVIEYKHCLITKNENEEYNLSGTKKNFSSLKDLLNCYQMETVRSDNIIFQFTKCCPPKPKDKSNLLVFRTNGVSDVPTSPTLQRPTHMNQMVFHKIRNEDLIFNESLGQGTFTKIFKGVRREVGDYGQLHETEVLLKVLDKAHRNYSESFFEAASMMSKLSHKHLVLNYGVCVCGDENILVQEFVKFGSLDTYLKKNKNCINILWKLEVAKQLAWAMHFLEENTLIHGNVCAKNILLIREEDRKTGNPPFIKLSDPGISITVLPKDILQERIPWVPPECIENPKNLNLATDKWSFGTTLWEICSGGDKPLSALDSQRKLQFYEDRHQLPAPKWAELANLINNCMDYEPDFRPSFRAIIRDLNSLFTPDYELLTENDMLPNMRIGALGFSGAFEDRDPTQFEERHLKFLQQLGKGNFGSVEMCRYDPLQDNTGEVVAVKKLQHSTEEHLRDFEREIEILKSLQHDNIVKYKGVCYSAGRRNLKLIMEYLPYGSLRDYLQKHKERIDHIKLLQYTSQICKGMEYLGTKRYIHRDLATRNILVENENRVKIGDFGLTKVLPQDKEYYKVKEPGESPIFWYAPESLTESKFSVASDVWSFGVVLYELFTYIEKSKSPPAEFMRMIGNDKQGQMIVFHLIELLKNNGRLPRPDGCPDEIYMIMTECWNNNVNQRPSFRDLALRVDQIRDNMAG
LAGRFYALRSM [CKB_Y174_K177R_YF] was tested, and the phosphorylation enrichment was 0.59. Sequence KMTGRYEMYAR [UPB1_Y362] has a phosphorylation enrichment of 0.674. Work on VNKIYYPDFIV [LIG3_Y768] yielded a phosphorylation enrichment of 0.666. In the case of IKELTYQMEED [MYH7_Y1852_T1854M], the phosphorylation enrichment was 1.01. With EREYKYGAHNH [OAT_Y50_Y55H] the phosphorylation enrichment was 0.591. RFMVGYEMLAQ [GALT_Y339_K334R] showed a phosphorylation enrichment of 1.4. For ANNEFYFQVCA, the phosphorylation enrichment was 1.25. Work on HEHVGYTTLNR [CHN1_Y148_Y143H] yielded a phosphorylation enrichment of 0.669. HIKHNYECLVY [XRCC5_Y416] showed a phosphorylation enrichment of 0.935. KGSLPYSLILD [PKD1L2_Y406_N407S] showed a phosphorylation enrichment of 1.19. For HAVFVCDICHV [TWNK_Y508_Y508C_YF], the phosphorylation enrichment was 0.948. Sequence IKGIRYLHHQG [GUCY2D_Y656_R660Q] has a phosphorylation enrichment of 0.414. YIATQYSLRPR [LBR_Y166] was tested, and the phosphorylation enrichment was 0.779. QQLVAYYSKHT [SRC_Y232_A237T] was tested, and the phosphorylation enrichment was 0.932. Work on YLAAIYPTVGQ [NF1_Y2508_T2507I] yielded a phosphorylation enrichment of 0.671. For FRVAGYETQGG [TIA1_Y383_YF], the phosphorylation enrichment was 0.722. DNLNNYVFQGQ [GRIN2A_Y978] was tested, and the phosphorylation enrichment was 1.01. With NYADPYRQLPY [CTNND2_Y503_Q507P] the phosphorylation enrichment was 0.669. Sequence KVQVSYKGDTK [HSPA1A_Y107_E110D] has a phosphorylation enrichment of 0.5. With HRAVEYLLTGI [RAD23A_Y197] the phosphorylation enrichment was 0.736. With QPEDIYHQTWA [GBA_Y244_G241E] the phosphorylation enrichment was 0.955. In the case of LRSELYSLIAR [PHIP_Y16_F17S], the phosphorylation enrichment was 0.54. Sequence EPTPGYEVGQR [TSC2_Y1788] has a phosphorylation enrichment of 0.672. For PVGVLYKVKVF [PTS_Y128_YF], the phosphorylation enrichment was 1.21. Sequence DRLASYQDKVR [KRT12_Y139_L140Q] has a phosphorylation enrichment of 0.577. Work on HFMKLYEEKTG [PARP1_Y618] yielded a phosphorylation enrichment of 0.592. TRSCKYLLLSM [NF1_Y491_Y489C] was tested, and the phosphorylation enrichment was 0.864. Work on EKSREYHRLFE [PIK3R1_Y463_D464H_YF] yielded a phosphorylation enrichment of 0.51. Sequence LIDGYYRLTED [JAK2_Y373_A377E] has a phosphorylation enrichment of 7.39. With VERIGYDFIPT [CBS_Y308_G305R] the phosphorylation enrichment was 0.611. Work on SVVVPYEPPKV [TP53_Y220_E224K] yielded a phosphorylation enrichment of 0.822. QRPGPYDRPGA [HNRNPH2_Y210] was tested, and the phosphorylation enrichment was 0.439. In the case of VIKDKYPKARF [APTX_Y209_YF], the phosphorylation enrichment was 0.772.

These sequences were tested against MERTK (UniProt Q12866) in the same assay as above.
MERTK, sequence (Q12866 whole entry, looked up): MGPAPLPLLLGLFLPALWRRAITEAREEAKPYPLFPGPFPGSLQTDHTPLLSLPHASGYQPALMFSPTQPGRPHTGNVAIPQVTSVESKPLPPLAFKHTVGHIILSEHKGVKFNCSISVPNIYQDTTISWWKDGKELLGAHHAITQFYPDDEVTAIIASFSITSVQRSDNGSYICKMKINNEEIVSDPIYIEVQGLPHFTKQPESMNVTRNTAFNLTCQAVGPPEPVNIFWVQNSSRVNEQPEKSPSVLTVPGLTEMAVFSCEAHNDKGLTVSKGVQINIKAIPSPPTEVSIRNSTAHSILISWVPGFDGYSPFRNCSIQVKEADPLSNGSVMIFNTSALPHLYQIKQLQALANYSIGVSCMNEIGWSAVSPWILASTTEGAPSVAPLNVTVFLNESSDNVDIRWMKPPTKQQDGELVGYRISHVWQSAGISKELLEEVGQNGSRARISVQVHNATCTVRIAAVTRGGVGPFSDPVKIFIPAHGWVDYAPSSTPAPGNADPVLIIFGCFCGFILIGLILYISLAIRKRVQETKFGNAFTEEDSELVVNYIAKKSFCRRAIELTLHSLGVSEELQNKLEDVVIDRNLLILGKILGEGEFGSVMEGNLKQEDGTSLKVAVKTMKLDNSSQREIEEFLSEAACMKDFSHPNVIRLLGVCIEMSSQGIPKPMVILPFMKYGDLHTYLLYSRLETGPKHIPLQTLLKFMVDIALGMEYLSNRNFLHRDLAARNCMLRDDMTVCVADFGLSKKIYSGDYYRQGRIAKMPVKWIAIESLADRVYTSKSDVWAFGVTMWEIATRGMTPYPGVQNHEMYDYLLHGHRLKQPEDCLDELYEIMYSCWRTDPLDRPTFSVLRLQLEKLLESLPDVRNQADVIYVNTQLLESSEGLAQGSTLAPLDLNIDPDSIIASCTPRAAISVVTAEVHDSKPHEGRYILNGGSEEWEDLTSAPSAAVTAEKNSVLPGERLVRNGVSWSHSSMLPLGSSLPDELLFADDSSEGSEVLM
LAGRFYALRSM [CKB_Y174_K177R_YF] was tested, and the phosphorylation enrichment was 0.509. Sequence KMTGRYEMYAR [UPB1_Y362] has a phosphorylation enrichment of 0.428. VNKIYYPDFIV [LIG3_Y768] gave a phosphorylation enrichment of 2.72. IKELTYQMEED [MYH7_Y1852_T1854M] gave a phosphorylation enrichment of 0.432. For EREYKYGAHNH [OAT_Y50_Y55H], the phosphorylation enrichment was 0.496. With RFMVGYEMLAQ [GALT_Y339_K334R] the phosphorylation enrichment was 0.635. In the case of ANNEFYFQVCA, the phosphorylation enrichment was 0.43. With HEHVGYTTLNR [CHN1_Y148_Y143H] the phosphorylation enrichment was 0.44. HIKHNYECLVY [XRCC5_Y416] showed a phosphorylation enrichment of 0.548. KGSLPYSLILD [PKD1L2_Y406_N407S] showed a phosphorylation enrichment of 1.93. HAVFVCDICHV [TWNK_Y508_Y508C_YF] gave a phosphorylation enrichment of 0.689. IKGIRYLHHQG [GUCY2D_Y656_R660Q] showed a phosphorylation enrichment of 0.455. Work on YIATQYSLRPR [LBR_Y166] yielded a phosphorylation enrichment of 0.731. With QQLVAYYSKHT [SRC_Y232_A237T] the phosphorylation enrichment was 0.629. With YLAAIYPTVGQ [NF1_Y2508_T2507I] the phosphorylation enrichment was 1.37. FRVAGYETQGG [TIA1_Y383_YF] was tested, and the phosphorylation enrichment was 0.437. For DNLNNYVFQGQ [GRIN2A_Y978], the phosphorylation enrichment was 0.657. Sequence NYADPYRQLPY [CTNND2_Y503_Q507P] has a phosphorylation enrichment of 6.98. In the case of KVQVSYKGDTK [HSPA1A_Y107_E110D], the phosphorylation enrichment was 0.414. Sequence HRAVEYLLTGI [RAD23A_Y197] has a phosphorylation enrichment of 0.549. For QPEDIYHQTWA [GBA_Y244_G241E], the phosphorylation enrichment was 3.42. LRSELYSLIAR [PHIP_Y16_F17S] gave a phosphorylation enrichment of 11. EPTPGYEVGQR [TSC2_Y1788] was tested, and the phosphorylation enrichment was 0.491. In the case of PVGVLYKVKVF [PTS_Y128_YF], the phosphorylation enrichment was 0.381. Sequence DRLASYQDKVR [KRT12_Y139_L140Q] has a phosphorylation enrichment of 0.437. HFMKLYEEKTG [PARP1_Y618] showed a phosphorylation enrichment of 0.438. TRSCKYLLLSM [NF1_Y491_Y489C] was tested, and the phosphorylation enrichment was 0.512. For EKSREYHRLFE [PIK3R1_Y463_D464H_YF], the phosphorylation enrichment was 0.427. With LIDGYYRLTED [JAK2_Y373_A377E] the phosphorylation enrichment was 0.574. VERIGYDFIPT [CBS_Y308_G305R] was tested, and the phosphorylation enrichment was 0.521. SVVVPYEPPKV [TP53_Y220_E224K] gave a phosphorylation enrichment of 0.366. QRPGPYDRPGA [HNRNPH2_Y210] gave a phosphorylation enrichment of 0.426. VIKDKYPKARF [APTX_Y209_YF] showed a phosphorylation enrichment of 0.374.

These sequences were tested against Fyn (UniProt P06241) in the same assay as above.
Fyn, sequence (P06241 whole entry, looked up): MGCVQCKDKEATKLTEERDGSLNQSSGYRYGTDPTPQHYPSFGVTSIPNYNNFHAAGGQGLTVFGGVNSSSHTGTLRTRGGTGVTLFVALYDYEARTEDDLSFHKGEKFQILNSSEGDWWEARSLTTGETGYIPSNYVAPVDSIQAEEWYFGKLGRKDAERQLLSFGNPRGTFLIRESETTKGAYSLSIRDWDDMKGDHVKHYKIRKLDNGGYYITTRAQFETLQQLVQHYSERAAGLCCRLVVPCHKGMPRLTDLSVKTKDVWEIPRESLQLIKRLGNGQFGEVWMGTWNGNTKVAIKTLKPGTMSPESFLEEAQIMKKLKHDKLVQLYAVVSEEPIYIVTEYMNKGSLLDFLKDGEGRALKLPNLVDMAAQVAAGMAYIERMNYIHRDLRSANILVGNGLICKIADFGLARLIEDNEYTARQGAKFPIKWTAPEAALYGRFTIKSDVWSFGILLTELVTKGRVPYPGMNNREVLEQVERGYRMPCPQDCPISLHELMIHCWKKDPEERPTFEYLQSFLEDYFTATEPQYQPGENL
LAGRFYALRSM [CKB_Y174_K177R_YF] showed a phosphorylation enrichment of 0.737. KMTGRYEMYAR [UPB1_Y362] showed a phosphorylation enrichment of 0.476. For VNKIYYPDFIV [LIG3_Y768], the phosphorylation enrichment was 1.09. Work on IKELTYQMEED [MYH7_Y1852_T1854M] yielded a phosphorylation enrichment of 0.889. Work on EREYKYGAHNH [OAT_Y50_Y55H] yielded a phosphorylation enrichment of 0.406. In the case of RFMVGYEMLAQ [GALT_Y339_K334R], the phosphorylation enrichment was 0.719. ANNEFYFQVCA gave a phosphorylation enrichment of 0.478. HEHVGYTTLNR [CHN1_Y148_Y143H] was tested, and the phosphorylation enrichment was 0.489. Work on HIKHNYECLVY [XRCC5_Y416] yielded a phosphorylation enrichment of 0.868. Work on KGSLPYSLILD [PKD1L2_Y406_N407S] yielded a phosphorylation enrichment of 0.734. HAVFVCDICHV [TWNK_Y508_Y508C_YF] showed a phosphorylation enrichment of 0.455. IKGIRYLHHQG [GUCY2D_Y656_R660Q] was tested, and the phosphorylation enrichment was 0.378. YIATQYSLRPR [LBR_Y166] showed a phosphorylation enrichment of 0.558. Sequence QQLVAYYSKHT [SRC_Y232_A237T] has a phosphorylation enrichment of 0.889. Sequence YLAAIYPTVGQ [NF1_Y2508_T2507I] has a phosphorylation enrichment of 0.513. Work on FRVAGYETQGG [TIA1_Y383_YF] yielded a phosphorylation enrichment of 0.409. Work on DNLNNYVFQGQ [GRIN2A_Y978] yielded a phosphorylation enrichment of 0.593. Work on NYADPYRQLPY [CTNND2_Y503_Q507P] yielded a phosphorylation enrichment of 0.501. KVQVSYKGDTK [HSPA1A_Y107_E110D] gave a phosphorylation enrichment of 0.372. HRAVEYLLTGI [RAD23A_Y197] showed a phosphorylation enrichment of 0.739. QPEDIYHQTWA [GBA_Y244_G241E] showed a phosphorylation enrichment of 7.34. With LRSELYSLIAR [PHIP_Y16_F17S] the phosphorylation enrichment was 1.63. EPTPGYEVGQR [TSC2_Y1788] showed a phosphorylation enrichment of 0.51. Work on PVGVLYKVKVF [PTS_Y128_YF] yielded a phosphorylation enrichment of 0.716. For DRLASYQDKVR [KRT12_Y139_L140Q], the phosphorylation enrichment was 0.361. With HFMKLYEEKTG [PARP1_Y618] the phosphorylation enrichment was 0.282. TRSCKYLLLSM [NF1_Y491_Y489C] was tested, and the phosphorylation enrichment was 0.441. EKSREYHRLFE [PIK3R1_Y463_D464H_YF] showed a phosphorylation enrichment of 0.358. With LIDGYYRLTED [JAK2_Y373_A377E] the phosphorylation enrichment was 0.625. VERIGYDFIPT [CBS_Y308_G305R] was tested, and the phosphorylation enrichment was 0.529. In the case of SVVVPYEPPKV [TP53_Y220_E224K], the phosphorylation enrichment was 0.387. In the case of QRPGPYDRPGA [HNRNPH2_Y210], the phosphorylation enrichment was 0.322. With VIKDKYPKARF [APTX_Y209_YF] the phosphorylation enrichment was 0.294.

These sequences were tested against EPHB2 (UniProt P29323) in the same assay as above.
EPHB2, sequence (P29323 whole entry, looked up): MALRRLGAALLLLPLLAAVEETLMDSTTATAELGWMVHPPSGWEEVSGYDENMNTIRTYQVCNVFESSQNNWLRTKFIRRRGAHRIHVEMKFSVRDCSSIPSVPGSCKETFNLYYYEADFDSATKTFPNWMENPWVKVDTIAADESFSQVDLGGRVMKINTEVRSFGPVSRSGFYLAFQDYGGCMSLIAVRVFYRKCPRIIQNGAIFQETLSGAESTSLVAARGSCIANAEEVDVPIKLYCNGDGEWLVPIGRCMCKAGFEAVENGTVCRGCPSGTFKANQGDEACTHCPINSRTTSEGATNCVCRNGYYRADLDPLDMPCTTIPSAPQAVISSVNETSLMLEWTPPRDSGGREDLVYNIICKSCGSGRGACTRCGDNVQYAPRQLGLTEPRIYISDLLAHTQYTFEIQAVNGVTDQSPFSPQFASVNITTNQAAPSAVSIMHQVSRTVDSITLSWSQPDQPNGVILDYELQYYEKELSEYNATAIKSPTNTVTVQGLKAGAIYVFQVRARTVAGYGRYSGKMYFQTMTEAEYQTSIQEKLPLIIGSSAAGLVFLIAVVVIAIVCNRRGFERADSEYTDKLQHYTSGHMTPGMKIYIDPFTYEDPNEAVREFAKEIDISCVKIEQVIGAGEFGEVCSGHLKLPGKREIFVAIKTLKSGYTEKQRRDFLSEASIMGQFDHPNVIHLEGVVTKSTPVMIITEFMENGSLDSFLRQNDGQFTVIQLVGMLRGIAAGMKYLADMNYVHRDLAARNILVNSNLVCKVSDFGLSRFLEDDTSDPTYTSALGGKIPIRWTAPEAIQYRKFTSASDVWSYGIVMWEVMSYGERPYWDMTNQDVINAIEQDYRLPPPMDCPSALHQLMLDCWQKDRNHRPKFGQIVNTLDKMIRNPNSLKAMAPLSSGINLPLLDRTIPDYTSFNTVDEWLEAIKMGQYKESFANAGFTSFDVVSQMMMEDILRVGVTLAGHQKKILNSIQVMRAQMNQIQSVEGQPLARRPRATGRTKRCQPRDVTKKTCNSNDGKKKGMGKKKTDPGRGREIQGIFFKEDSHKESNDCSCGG
Work on LAGRFYALRSM [CKB_Y174_K177R_YF] yielded a phosphorylation enrichment of 0.944. Sequence KMTGRYEMYAR [UPB1_Y362] has a phosphorylation enrichment of 0.627. For VNKIYYPDFIV [LIG3_Y768], the phosphorylation enrichment was 0.516. IKELTYQMEED [MYH7_Y1852_T1854M] showed a phosphorylation enrichment of 0.628. In the case of EREYKYGAHNH [OAT_Y50_Y55H], the phosphorylation enrichment was 0.509. In the case of RFMVGYEMLAQ [GALT_Y339_K334R], the phosphorylation enrichment was 0.811. ANNEFYFQVCA was tested, and the phosphorylation enrichment was 0.588. In the case of HEHVGYTTLNR [CHN1_Y148_Y143H], the phosphorylation enrichment was 0.429. Sequence HIKHNYECLVY [XRCC5_Y416] has a phosphorylation enrichment of 2.44. For KGSLPYSLILD [PKD1L2_Y406_N407S], the phosphorylation enrichment was 0.675. In the case of HAVFVCDICHV [TWNK_Y508_Y508C_YF], the phosphorylation enrichment was 0.631. Sequence IKGIRYLHHQG [GUCY2D_Y656_R660Q] has a phosphorylation enrichment of 0.387. For YIATQYSLRPR [LBR_Y166], the phosphorylation enrichment was 0.493. Sequence QQLVAYYSKHT [SRC_Y232_A237T] has a phosphorylation enrichment of 0.92. YLAAIYPTVGQ [NF1_Y2508_T2507I] gave a phosphorylation enrichment of 0.514. In the case of FRVAGYETQGG [TIA1_Y383_YF], the phosphorylation enrichment was 0.41. DNLNNYVFQGQ [GRIN2A_Y978] showed a phosphorylation enrichment of 1.17. NYADPYRQLPY [CTNND2_Y503_Q507P] was tested, and the phosphorylation enrichment was 10.7. KVQVSYKGDTK [HSPA1A_Y107_E110D] was tested, and the phosphorylation enrichment was 0.36. HRAVEYLLTGI [RAD23A_Y197] showed a phosphorylation enrichment of 0.636. QPEDIYHQTWA [GBA_Y244_G241E] showed a phosphorylation enrichment of 0.673. Work on LRSELYSLIAR [PHIP_Y16_F17S] yielded a phosphorylation enrichment of 1.36. With EPTPGYEVGQR [TSC2_Y1788] the phosphorylation enrichment was 0.585. Work on PVGVLYKVKVF [PTS_Y128_YF] yielded a phosphorylation enrichment of 0.906. DRLASYQDKVR [KRT12_Y139_L140Q] was tested, and the phosphorylation enrichment was 0.461. HFMKLYEEKTG [PARP1_Y618] gave a phosphorylation enrichment of 0.46. TRSCKYLLLSM [NF1_Y491_Y489C] gave a phosphorylation enrichment of 0.621. EKSREYHRLFE [PIK3R1_Y463_D464H_YF] was tested, and the phosphorylation enrichment was 0.483. Sequence LIDGYYRLTED [JAK2_Y373_A377E] has a phosphorylation enrichment of 0.914. Work on VERIGYDFIPT [CBS_Y308_G305R] yielded a phosphorylation enrichment of 0.461. With SVVVPYEPPKV [TP53_Y220_E224K] the phosphorylation enrichment was 0.59. With QRPGPYDRPGA [HNRNPH2_Y210] the phosphorylation enrichment was 0.466. VIKDKYPKARF [APTX_Y209_YF] was tested, and the phosphorylation enrichment was 0.297.
